The source of these data is publication PMC11872457 (2025).

The assay deals with T1, SARS-CoV-2 replicase polyprotein 1ab (CoV-YL8; identical in HKU1 and NL63) peptide on HLA-B*35:03 (human).
T1 peptide: YPDPSRIL
Put plainly: cytokine release.

B1: CoV-YL8 TCR (TCR)
alpha TRAV1-1 TRAJ4 CDR3: CAVRGISGGYNKLIF
beta TRBV19 TRBJ1-6 CDR3: CASSIEGSYNSPLHF
On to B1, for which the binding result is on record as “recognises”.
